Test results as given in patent publication US5981488.

Target: rat GLP-1 receptor (rat) (UniProt P32301)

Row | Percent receptor affinities (cAMP production by the membrane preparation, fluorescent tracer-immuno assay) [%] | Substance
1 | 16.6 | Met-8 GLP-1(7-36)NH2 (peptide)
2 | 2.8 | Thr-8 GLP-1(7-37)OH (peptide)
